According to PMC2685004, “Recruitment of a SAP18-HDAC1 Complex into HIV-1 Virions and Its Requirement for Viral Replication” (PLoS Pathogens, 2009):

How the values were obtained:
[1] = target: T1, 6H(hexa-histidine)-INI1/hSNF5 (human, UniProt Q12824 1-385); assay: pull-down; glutathione sepharose beads with GST-SAP18 incubated with purified IN and INI1 together; Western blot; settings: both partners purified
T1 construct: also called His-INI1; source: Ni-NTA and hydroxylapatite purified

[2] = target: T1, 6H(hexa-histidine)-INI1/hSNF5; assay: pull-down; glutathione sepharose 4B beads with 5 µg GST or GST-SAP18, incubated with 2 µg His-IN or His-INI1, one at a time; 20 mM HEPES-KOH pH 6.8, 200 mM NaCl, 0.1 mM EDTA, 2-5 mM DTT, 0.1% IGEPAL, 100 µg/ml ethidium bromide, 10 U DNaseI; Western blot; settings: both partners purified

T1 sequence (Q12824 whole entry): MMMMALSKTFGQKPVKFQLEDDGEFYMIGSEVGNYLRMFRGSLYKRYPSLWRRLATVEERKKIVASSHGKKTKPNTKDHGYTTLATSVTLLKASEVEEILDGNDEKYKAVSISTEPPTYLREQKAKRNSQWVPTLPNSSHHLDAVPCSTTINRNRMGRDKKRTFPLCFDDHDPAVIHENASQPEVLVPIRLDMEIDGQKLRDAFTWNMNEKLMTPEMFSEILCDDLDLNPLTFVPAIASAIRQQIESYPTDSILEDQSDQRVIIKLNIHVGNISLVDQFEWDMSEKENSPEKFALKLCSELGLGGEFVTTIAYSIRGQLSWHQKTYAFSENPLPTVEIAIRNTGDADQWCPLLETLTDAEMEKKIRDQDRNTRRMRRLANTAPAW

B1: GST-SAP18 (natural protein, UniProt O00422 1-153, looked up)
chain: MAVESRVTQEEIKKEPEKPIDREKTCPLLLRVFTTNNGRHHRMDEFSRGNVPSSELQIYTWMDATLKELTSLVKEVYPEARKKGTHFNFAIVFTDVKRPGYRVKEIGSTMSGRKGTDDSMTLQSQKFQIGDYLDIAITPPNRAPPPSGRMRPY
notes: also called GST (glutathione-S-transferase)-SAP18; pGEX-SAP18
binding result [1]: binds
binding result [2]: binds
